Assay results reported in patent publication US20180244758A1 (MAPP BIOPHARMACEUTICAL, published 2018).

Experiments:
Experiment in all cases: cell-based or functional assay
[1] = molecular target: T1, EBOV GPCL on cleaved VSV-GP particles (Ebola virus (EBOV), UniProt Q05320 33-676)
T1 sequence: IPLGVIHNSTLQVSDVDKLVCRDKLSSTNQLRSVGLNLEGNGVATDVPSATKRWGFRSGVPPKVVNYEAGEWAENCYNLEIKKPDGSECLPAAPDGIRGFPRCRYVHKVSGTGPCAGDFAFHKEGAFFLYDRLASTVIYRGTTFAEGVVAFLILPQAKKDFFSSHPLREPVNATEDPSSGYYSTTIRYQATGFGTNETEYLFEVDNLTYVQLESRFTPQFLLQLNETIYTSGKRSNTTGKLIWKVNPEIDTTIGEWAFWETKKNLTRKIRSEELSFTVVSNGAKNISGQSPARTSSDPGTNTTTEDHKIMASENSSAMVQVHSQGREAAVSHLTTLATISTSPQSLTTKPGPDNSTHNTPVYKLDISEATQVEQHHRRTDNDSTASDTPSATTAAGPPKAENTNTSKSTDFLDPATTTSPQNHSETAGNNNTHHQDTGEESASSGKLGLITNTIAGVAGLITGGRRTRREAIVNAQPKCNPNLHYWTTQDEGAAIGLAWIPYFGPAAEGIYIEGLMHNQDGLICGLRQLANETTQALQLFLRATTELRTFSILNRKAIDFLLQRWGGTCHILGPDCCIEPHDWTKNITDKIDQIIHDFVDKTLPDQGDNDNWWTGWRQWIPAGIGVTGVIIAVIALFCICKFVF

[2] = molecular target: T2, GP of authentic (wild-type) EBOV (Ebola virus (EBOV), UniProt P87666 33-676)
T2 sequence: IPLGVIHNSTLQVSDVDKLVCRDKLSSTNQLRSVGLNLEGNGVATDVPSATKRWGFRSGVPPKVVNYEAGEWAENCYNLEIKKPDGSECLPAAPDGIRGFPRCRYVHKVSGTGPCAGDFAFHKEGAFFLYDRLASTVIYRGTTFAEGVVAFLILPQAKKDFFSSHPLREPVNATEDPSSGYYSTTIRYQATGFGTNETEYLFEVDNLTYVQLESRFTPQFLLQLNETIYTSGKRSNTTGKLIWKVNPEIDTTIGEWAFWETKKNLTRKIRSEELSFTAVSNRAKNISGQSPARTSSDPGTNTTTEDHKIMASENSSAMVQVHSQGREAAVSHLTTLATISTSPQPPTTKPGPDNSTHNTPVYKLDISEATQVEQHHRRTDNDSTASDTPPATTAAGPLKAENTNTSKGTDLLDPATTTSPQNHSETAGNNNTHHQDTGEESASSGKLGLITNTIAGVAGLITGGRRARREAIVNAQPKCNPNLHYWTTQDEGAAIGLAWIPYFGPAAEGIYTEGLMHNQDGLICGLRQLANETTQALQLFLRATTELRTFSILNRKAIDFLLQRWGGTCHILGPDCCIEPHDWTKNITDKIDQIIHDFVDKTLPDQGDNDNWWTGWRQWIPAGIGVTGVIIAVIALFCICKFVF

[3] = molecular target: BDBV GP on rVSV particles (Bundibugyo virus (BDBV))
[4] = molecular target: GP of authentic (wild-type) BDBV (Bundibugyo virus (BDBV))
[5] = molecular target: T3, GP of authentic (wild-type) SUDV (Sudan virus (SUDV), UniProt Q66814 33-676)
T3 sequence: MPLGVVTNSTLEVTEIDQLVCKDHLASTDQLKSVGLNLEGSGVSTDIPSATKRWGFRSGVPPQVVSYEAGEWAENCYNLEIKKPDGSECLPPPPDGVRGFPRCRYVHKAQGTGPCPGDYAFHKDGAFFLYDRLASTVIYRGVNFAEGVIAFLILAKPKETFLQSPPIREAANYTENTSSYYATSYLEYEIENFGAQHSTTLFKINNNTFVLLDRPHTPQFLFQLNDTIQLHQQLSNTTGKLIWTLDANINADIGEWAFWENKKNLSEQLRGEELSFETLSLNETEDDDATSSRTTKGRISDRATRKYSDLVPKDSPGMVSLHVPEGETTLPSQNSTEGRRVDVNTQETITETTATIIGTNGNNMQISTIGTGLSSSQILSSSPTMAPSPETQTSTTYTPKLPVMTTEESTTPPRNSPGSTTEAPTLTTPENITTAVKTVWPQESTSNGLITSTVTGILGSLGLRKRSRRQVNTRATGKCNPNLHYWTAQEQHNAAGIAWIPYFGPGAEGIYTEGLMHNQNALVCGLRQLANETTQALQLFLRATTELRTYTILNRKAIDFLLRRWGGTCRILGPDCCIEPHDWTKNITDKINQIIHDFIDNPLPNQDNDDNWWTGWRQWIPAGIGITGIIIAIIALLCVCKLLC

[6] = molecular target: T4, RESTV GP on rVSV particles (Reston virus (RESTV), UniProt Q66799 34-677)
T4 sequence: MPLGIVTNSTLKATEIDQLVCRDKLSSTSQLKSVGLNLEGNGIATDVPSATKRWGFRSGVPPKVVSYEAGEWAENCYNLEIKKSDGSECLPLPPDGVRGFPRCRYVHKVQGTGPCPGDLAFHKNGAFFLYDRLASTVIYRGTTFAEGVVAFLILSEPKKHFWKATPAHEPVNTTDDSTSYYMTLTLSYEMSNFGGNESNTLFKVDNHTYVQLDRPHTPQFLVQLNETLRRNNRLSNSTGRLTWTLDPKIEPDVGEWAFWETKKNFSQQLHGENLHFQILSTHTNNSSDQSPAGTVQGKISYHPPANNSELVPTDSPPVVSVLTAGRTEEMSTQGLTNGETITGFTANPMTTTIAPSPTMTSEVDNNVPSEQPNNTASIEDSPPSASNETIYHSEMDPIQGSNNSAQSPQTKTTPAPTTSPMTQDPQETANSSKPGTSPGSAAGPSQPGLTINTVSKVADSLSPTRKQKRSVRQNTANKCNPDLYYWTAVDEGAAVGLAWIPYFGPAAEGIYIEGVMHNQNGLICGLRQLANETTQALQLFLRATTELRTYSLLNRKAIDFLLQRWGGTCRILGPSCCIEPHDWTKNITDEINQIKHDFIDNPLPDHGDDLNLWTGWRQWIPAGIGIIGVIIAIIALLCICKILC

B1: mAb PE-16 (antibody, V domains shown)
VH: QVQLVQSGAEVTKPGASVKVSCKASGYTFTTYYMHWVRQAPGQGLEWVGIINPSGGITRYAQKFQGRVTLTRDTSTTTVYMELSSLRSEDTAVYYCARDRYPVLFATDYGMDVWGQGTTVTVSS
VL: DIVMTQSPATLSLSPGERATLSCRASQSVSGYLAWYQQKPGQAPRLLIYDASNRATGIPARFSGSGSGTDFTLTISSLEPEDFAVYYCQQRSIWPPGVTFGGGTKVEIK
Neutralization (VSV-GP IC50, nM) [1]: 5.7 nM
Microneut. WT IC50 [2]: 0.05 nM
Neut. WT EBOV PRNT50 [2]: < 0.02 nM
Neutralization (VSV-GP IC50, nM) [3]: 0.6 nM
Microneut. WT IC50 [4]: 0.2 nM

B2: mAb PE-87 (antibody, V domains shown)
VH: QVQLVQSGVTLVQPGGSLRVSCAASGFTFSSYAMSWVRQAPGKGLEWVSAISGLGGSTYYADSVKGRFTISRDNSKNTLYLQMNSLRAEDTAVYYCAKDHRVWAAGYHFDYWGQGALVTVSS
VL: DIVLTQSPSTLSASVGDRVTITCRASQSISSWLAWYQQKPGEAPKLLISDASSLESGVPSRFSGSGSGTEFTLTISSLQPDDFATYYCQQYYSSPTFGGGTKVEIK
Neutralization (VSV-GP IC50, nM) [1]: 0.2 nM
Microneut. WT IC50 [5]: 0.3 nM
Microneut. WT IC50 [2]: 0.3 nM
Neut. WT EBOV PRNT50 [2]: < 0.05 nM
Neutralization (VSV-GP IC50, nM) [6]: 0.2 nM
Neutralization (VSV-GP IC50, nM) [3]: 0.5 nM
Microneut. WT IC50 [4]: 0.4 nM

B3: mAb PE-24 (antibody, V domains shown)
VH: EVQLVESGGGLVQPGGSLRLSCAASGFTFSSYAMSWVRQAPGKGLEWVSEISGLGGSTYYADSAKGRFTISRDNSKSTLYLQMNSLRAEDTAVYYCAKDHRVWAPGYYFDHWGQGTLVTVSS
VL: DIVLTQSPSTLSASVGDRVTITCRASQSISSWLAWYQQKPGKAPKLLIYDASSLESGVPSRFSGSGSGTEFTLTISSLQPDDFATYFCQQYNRSPTFGGGTKVEIK
Neutralization (VSV-GP IC50, nM) [1]: 0.6 nM
Microneut. WT IC50 [5]: 0.4 nM
Microneut. WT IC50 [2]: 1 nM
Neut. WT EBOV PRNT50 [2]: 0.4 nM
Neutralization (VSV-GP IC50, nM) [6]: 0.2 nM
Neutralization (VSV-GP IC50, nM) [3]: 0.8 nM
Microneut. WT IC50 [4]: 0.3 nM

B4: mAb PE-05 (antibody, V domains shown)
VH: QVQLQESGGGLVKPGRSLRLSCTASGFTFGDYAMSWFRQAPGKGLEWVGFLRSKAYGGTAEYAASVKGRFTMSRDDSKSIAYLQMNSLKTEDTAVYFCTRDGFRGSSWGYSYYGMDVWGQGTTVTVSS
VL: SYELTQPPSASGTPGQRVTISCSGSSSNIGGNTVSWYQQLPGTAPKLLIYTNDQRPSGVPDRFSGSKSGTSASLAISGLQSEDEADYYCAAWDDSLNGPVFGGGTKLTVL
Microneut. WT IC50 [2]: 7.7 nM
Neut. WT EBOV PRNT50 [2]: 4 nM
Neutralization (VSV-GP IC50, nM) [6]: 22 nM
Neutralization (VSV-GP IC50, nM) [3]: 3.7 nM

B5: mAb PE-47 (antibody, V domains shown)
VH: EVQLVESGGGLVKPGGSLRLSCAASGFTFSNAWMSWVRQAPGEGLEWVGRIKSKTDGGTIDYAAPVKGRFTISRDDSKNTVYLQMTSLKTEDTAVYYCTTYTEDMQYFDWLLRGGETFDYWGQGTLVTVSS
VL: DIQMTQSPSSLSASVGDRVTITCRASQYISTYLNWYQQKPGKAPKLLIYAAYNLQSGVPSRFSGSGSGTDFTLTISSLQPEDFATYYCQQSYSTPGRYTFGQGTKVEIK
Neutralization (VSV-GP IC50, nM) [1]: 0.08 nM
Microneut. WT IC50 [5]: < 0.1 nM
Microneut. WT IC50 [2]: 0.7 nM
Neutralization (VSV-GP IC50, nM) [3]: 0.4 nM
Microneut. WT IC50 [4]: 0.5 nM
